Assay results from PMC7571800.

What was measured:
[1] = target: SUZ12(N) 3D;RBBP4;MTF2 full-length (Homo sapiens;Homo sapiens;Homo sapiens?, UniProt Q15022;Q09028;Q9Y483 76-545;1-425;1-593, K195D;R196D;K197D||); assay: EMSA
[2] = target: SUZ12(N);RBBP4;MTF2 full-length (Homo sapiens;Homo sapiens;Homo sapiens?, UniProt Q15022;Q09028;Q9Y483 76-545;1-425;1-593, ||); assay: EMSA
Chain of SUZ12(N);RBBP4;MTF2 full-length (Q15022 76-545, chain 1 of 3): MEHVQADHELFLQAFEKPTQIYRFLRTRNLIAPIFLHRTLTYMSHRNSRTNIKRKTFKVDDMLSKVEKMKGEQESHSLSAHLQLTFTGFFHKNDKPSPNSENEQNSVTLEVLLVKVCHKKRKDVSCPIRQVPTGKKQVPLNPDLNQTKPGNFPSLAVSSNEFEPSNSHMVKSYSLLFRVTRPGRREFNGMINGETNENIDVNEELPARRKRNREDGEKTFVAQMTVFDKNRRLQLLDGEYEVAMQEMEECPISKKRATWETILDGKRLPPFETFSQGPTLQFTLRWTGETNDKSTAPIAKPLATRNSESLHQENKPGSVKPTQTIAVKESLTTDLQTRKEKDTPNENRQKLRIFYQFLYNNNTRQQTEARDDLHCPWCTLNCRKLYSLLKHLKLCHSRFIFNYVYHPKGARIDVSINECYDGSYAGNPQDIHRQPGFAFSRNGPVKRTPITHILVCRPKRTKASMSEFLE
Chain of SUZ12(N);RBBP4;MTF2 full-length (Q09028 whole entry, chain 2 of 3): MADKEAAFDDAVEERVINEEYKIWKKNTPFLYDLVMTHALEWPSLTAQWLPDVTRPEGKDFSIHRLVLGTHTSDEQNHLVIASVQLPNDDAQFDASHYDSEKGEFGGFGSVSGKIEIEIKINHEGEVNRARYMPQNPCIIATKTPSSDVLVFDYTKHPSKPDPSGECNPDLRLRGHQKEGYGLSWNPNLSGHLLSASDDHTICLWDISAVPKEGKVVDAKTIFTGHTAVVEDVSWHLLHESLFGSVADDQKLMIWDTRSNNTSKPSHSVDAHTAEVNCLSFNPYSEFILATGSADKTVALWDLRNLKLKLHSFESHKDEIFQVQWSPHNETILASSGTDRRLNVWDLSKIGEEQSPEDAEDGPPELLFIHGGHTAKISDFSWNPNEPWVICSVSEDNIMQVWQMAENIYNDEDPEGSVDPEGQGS
Chain of SUZ12(N);RBBP4;MTF2 full-length (Q9Y483 whole entry, chain 3 of 3): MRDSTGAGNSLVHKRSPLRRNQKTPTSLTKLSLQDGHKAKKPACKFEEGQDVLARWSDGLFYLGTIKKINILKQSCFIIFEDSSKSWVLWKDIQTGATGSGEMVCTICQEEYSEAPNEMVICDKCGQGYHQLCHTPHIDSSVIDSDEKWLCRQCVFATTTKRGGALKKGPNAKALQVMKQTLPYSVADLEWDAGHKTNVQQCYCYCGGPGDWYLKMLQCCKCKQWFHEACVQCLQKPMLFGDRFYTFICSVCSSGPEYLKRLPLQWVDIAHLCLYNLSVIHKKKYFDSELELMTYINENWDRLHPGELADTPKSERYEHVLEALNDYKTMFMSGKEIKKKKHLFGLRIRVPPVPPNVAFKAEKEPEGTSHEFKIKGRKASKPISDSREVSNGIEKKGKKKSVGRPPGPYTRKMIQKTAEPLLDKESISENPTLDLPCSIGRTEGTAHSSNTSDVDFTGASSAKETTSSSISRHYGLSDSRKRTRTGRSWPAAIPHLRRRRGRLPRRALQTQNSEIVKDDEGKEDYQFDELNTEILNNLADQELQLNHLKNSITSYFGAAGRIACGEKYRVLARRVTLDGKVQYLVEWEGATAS

Chain of SUZ12(N) 3D;RBBP4;MTF2 full-length (Q15022 76-545 K195D/R196D/K197D, chain 1 of 3): as the sequence (Q15022 76-545, chain 1 of 3) above, with K120D, R121D, K122D counted along it
Chain of SUZ12(N) 3D;RBBP4;MTF2 full-length (Q09028 whole entry, chain 2 of 3): as the sequence (Q09028 whole entry, chain 2 of 3) above
Chain of SUZ12(N) 3D;RBBP4;MTF2 full-length (Q9Y483 whole entry, chain 3 of 3): as the sequence (Q9Y483 whole entry, chain 3 of 3) above

B1: CGI-LHX6 100 bp (dsDNA)
DNA 1: GTGGTGGTGGTGGTTGAGAAAATAAAACCCAGAGCGCTAGGAGCATCCGCCCGCTCGACGCGCGCCGGGAAATTGAAGCGGGGATATTGACACCGATTCA
DNA 2: TGAATCGGTGTCAATATCCCCGCTTCAATTTCCCGGCGCGCGTCGAGCGGGCGGATGCTCCTAGCGCTCTGGGTTTTATTTTCTCAACCACCACCACCAC
In the case of B1, the binding signal [1] is reported as greater than 25 fold weaker than WT and the Kd [2] is reported as 17.6 nM.
